Measurements: paper PMC5531466, “Biochemical characterization of a new nicotinamidase from an unclassified bacterium thriving in a geothermal water stream microbial mat community” (PLoS ONE, 2017)

Legend:
(UniProt H5SPS2) = biological target: T1, (UniProt H5SPS2); assay: HPLC nicotinamidase assay, Morrison equation; also thermal shift (Tm […] °C); type: biochemical
T1 construct: full-length, N-terminal 6-histidine tag (pET28a)

COC(=O)c1cccnc1 = assay: purified protein; settings: Fe2+ active site
CCOC(=O)c1cccnc1 = assay: purified protein; settings: Fe2+ active site; C155 thiolate attack at C7 of ethylnicotinate
NC(=O)c1cnccn1 = assay: purified protein; settings: Fe2+ active site
Cc1cncc(C(N)=O)c1 = assay: purified protein; settings: Fe2+ active site

T1 sequence (H5SPS2 1-220): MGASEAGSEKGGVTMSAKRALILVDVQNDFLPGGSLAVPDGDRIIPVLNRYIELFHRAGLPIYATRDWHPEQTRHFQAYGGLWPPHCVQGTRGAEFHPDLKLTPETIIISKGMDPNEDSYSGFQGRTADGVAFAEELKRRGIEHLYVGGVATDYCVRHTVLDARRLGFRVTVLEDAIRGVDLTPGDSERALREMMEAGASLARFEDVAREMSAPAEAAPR

| Compound | Ki ((UniProt H5SPS2)) [nM] | Km (COC(=O)c1cccnc1) [mM] | kcat (COC(=O)c1cccnc1) [s⁻¹] | kcat/Km (COC(=O)c1cccnc1) [M⁻¹ s⁻¹] | Km (CCOC(=O)c1cccnc1) [mM] | kcat (CCOC(=O)c1cccnc1) [s⁻¹] | kcat/Km (CCOC(=O)c1cccnc1) [M⁻¹ s⁻¹] | Km (NC(=O)c1cnccn1) [mM] | kcat (NC(=O)c1cnccn1) [s⁻¹] | kcat/Km (NC(=O)c1cnccn1) [M⁻¹ s⁻¹] | Km (Cc1cncc(C(N)=O)c1) [mM] | kcat (Cc1cncc(C(N)=O)c1) [s⁻¹] | kcat/Km (Cc1cncc(C(N)=O)c1) [M⁻¹ s⁻¹] |
| --- | --- | --- | --- | --- | --- | --- | --- | --- | --- | --- | --- | --- | --- |
| O=Cc1cccnc1 [nicotinaldehyde] | 180 ± 1 | – | – | – | – | – | – | – | – | – | – | – | – |
| UbNic (nicotinamidase) (uncultured Acidobacteriota bacterium) | – | 1.08 ± 0.11 | 54.5 ± 0.8 | 50500 | 1.31 ± 0.03 | 3.7 ± 0.3 | 2800 | 0.33 ± 0.05 | 18.7 ± 0.3 | 56700 | 1.09 ± 0.20 | 43.7 ± 0.3 | 40100 |
